Data: article PMC2816702 (PLoS ONE, 2010)
Where “and” joins values, the source holds several entries; their conditions need not be identical. Identical values can stand only once.

Columns and labels:
[1] = target: Recombinant major celery allergen Api g 1 (celery); assay: native MS; ESI FT-ICR, direct infusion, 10 mM ammonium acetate pH 6.9, allergen (monomer) concentration 10 µM
[2] = target: Recombinant major apple allergen Mal d 1 (apple) (UniProt P43211); assay: native MS; ESI FT-ICR, direct infusion, 10 mM ammonium acetate pH 6.9, allergen (monomer) concentration 9 µM
[3] = target: Recombinant birch pollen profilin Bet v 2 (birch); assay: native MS; ESI FT-ICR, direct infusion, 10 mM ammonium acetate pH 6.9, allergen (monomer) concentration 40 µM
[4] = target: T1, Recombinant birch pollen allergen Bet v 1a (birch), P15494; assay: as above; conditions: remark: other sources report otherwise
T1 chain: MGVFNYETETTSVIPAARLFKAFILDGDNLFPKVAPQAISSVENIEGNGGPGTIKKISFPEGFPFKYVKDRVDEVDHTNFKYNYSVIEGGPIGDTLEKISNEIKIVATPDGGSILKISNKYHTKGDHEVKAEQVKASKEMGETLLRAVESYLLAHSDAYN

[5] = target: the molecule itself; assay: native MS; ESI FT-ICR, direct infusion, 10 mM ammonium acetate pH 6.9, allergen (monomer) concentration 10 µM
native MS = target: the molecule itself; assay: native MS
[6] = target: the molecule itself; assay: native MS; ESI FT-ICR, direct infusion, 10 mM ammonium acetate pH 6.9, allergen (monomer) concentration 8 µM

“Recombinant major celery allergen Api g 1 (natural protein)” was tested, and the stoichiometry N [1] was 2.

In the case of “Recombinant major apple allergen Mal d 1 (from UniProt P43211 1-159) (natural protein)”, the stoichiometry N [2] is reported as 2.

“Recombinant birch pollen profilin Bet v 2 (natural protein)” was tested, and the stoichiometry N [3] was 2 and 3 and 4.

B1: Recombinant birch pollen allergen Bet v 1a, P15494 1-160 (natural protein)
chain: T1 chain
B1 showed a stoichiometry N [4] of 2.

B2: Recombinant rubber tree allergen Hev b 8 (natural protein)
chain: SWQTYVDDHLMCDIDGHRLTAAAIIGHDGSVWAQSSSFPQFKSDEVAAVMKDFDEPGSLAPTGLHLGGTKYMVIQGEPGAVIRGKKGSGGITVKKTGQALIIGIYDEPLTPGQCNMIVERLGDYLLDQGL
B2 was tested, and the “stoichiometry N” value [5] was 2.

B3: Bos d 5 variant A (in native Bos d 5) (natural protein)
chain: LIVTQTMKGLDIQKVAGTWYSLAMAASDISLLDAQSAPLRVYVEELKPTPEGDLEILLQKWENDECAQKKIIAEKTKIPAVFKIDALNENKVLVLDTDYKKYLLFCMENSAEPEQSLVCQCLVRTPEVDDEALEKFDKALKALPMHIRLSFNPTQLEEQCHI
In the case of B3, the “abundance ratio among the dimeric species” value (native MS) is reported as 18%.

B4: Recombinant Alternaria alternata allergen Alt a 1 (natural protein)
chain: APLESRQDTASCPVTTEGDYVWKISEFYGRKPEGTYYNSLGFNIKATNGGTLDFTCSAQADKLEDHKWYSCGENSFMDFSFDSDRSGLLLKQKVSDDITYVATATLPNYCRAGGNGPKDFVCQGVADAYITLVTLPKSS
notes: source: bought: Biomay AG (recombinant)
B4 was tested, and the “stoichiometry N” value [6] was 2.

B5: Recombinant timothy pollen allergen Phl p 6 (natural protein, UniProt P43215 23-132, looked up)
chain: GKATTEEQKLIEDVNASFRAAMATTANVPPADKYKTFEAAFTVSSKRNLADAVSKAPQLVPKLDEVYNAAYNAADHAAPEDKYEAFVLHFSEALRIIAGTPEVHAVKPGA
notes: as for B4
With B5 the “stoichiometry N” value [5] was 2 and 3.
